Residue numbers refer to the chain shown, from its start. Names and notes keep the numbering of the source. One block for each binder: values may come before it.
How the values were obtained:
[1] = biological target: T1, wild-type CNTFR-HIS (human, UniProt P26992 23-342); assay: flow cytometry, yeast-displayed CLCF1 construct, soluble CNTFR-HIS titrated, anti-HIS Hilyte Fluor 488 detection
T1 construct: also called wtCNTFR-HIS; HIS tagged CNTFR; not shown: HIS tag
T1 sequence: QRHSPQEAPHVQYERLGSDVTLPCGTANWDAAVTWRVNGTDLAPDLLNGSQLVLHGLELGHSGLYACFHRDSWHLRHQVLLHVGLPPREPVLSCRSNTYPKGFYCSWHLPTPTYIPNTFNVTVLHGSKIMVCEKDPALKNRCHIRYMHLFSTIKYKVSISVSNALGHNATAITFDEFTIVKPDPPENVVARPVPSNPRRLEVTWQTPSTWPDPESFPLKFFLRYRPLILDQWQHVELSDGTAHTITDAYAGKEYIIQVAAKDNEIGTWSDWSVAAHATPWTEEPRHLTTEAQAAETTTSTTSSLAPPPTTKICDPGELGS
Description: (§1) Using equilibrium binding conditions and screened by flow cytometric sorting (FACS), high throughput screening of the CLCF1 library using wtCNTFR-HIS was performed to enrich variants showing increased CLCF1 binding. Expression signal was used to normalize CNTFR binding to distinguish high expressers from high affinity binders. Screening stringency was increased throughout sorting by decreasing the concentration of wtCNTFR-HIS incubated with the library. […] Thus a variant containing the three mutations (named FRR-CLCF1) was chosen for further characterization (FIG. 7).
(§2) Yeast displaying CLCF1 constructs were incubated with varying concentrations of CNTFR for 12 h at room temperature to reach equilibrium binding. This was followed by washing with BPBS and resuspension in PBSA with 1:500 ratio of chicken anti-c-Myc (Invitrogen) for 30 min at 4 C. Yeast were then washed and pelleted, and secondary labeling was performed on ice for 30 min using PBSA with 1:100 dilution of goat anti-chicken PE (Santa Cruz) and mouse anti-HIS Hilyte Fluor 488 (Anaspec). Then samples were washed and analyzed by flow cytometry using Accuri (BD Biosciences). Samples were analyzed on BD Bioscience software, and data were analyzed using FlowJo software. Kd values were determined by fitting to a four-parameter sigmoidal curve. Error bars represent the standard deviation of triplicate experiments.

[2] = biological target: T1, wild-type CNTFR-HIS; assay: flow cytometry, yeast-displayed CLCF1 construct, soluble CNTFR-HIS titrated, apparent Kd from a four-parameter fit
Description: as §1, §2

[3] = biological target: T2, wild-type CNTFR-Fc (human, UniProt P26992 23-342); assay: cell-free ELISA: HIS-tagged CLCF1 constructs with 2 nM CNTFR-Fc, captured by anti-HIS, detected by anti-mouse HRP; FRR-CLCF1 plus W169L
T2 construct: also called wtCNTFR-Fc; not shown: Fc domain; captured with anti-mouse Fc antibody
T2 sequence: T1 sequence
Description: (§3) 96-well plates were coated with 10 μg/mL of anti-HIS antibody overnight and blocked with 5% milk for 1 h. The plates were then washed twice with BPBS. Different concentrations of soluble constructs of HIS-tagged CLCF1 variants were incubated with 2 nM CNTFR-Fc in BPBS for 12 h at room temperature. The mixture was then added to 96-well plates coated with anti-HIS antibody for 1 h followed by washing with BPBS twice. Subsequently, the wells were incubated with 1:1000 diluted HRP conjugated anti-mouse antibody for 1 h at room temperature then washed four times with PBS. 1-Step Ultra TMB ELISA (Thermo Fisher Scientific) was used for the readout detected using a plate reader (Tecan).

[4] = biological target: T2, wild-type CNTFR-Fc; assay: cell-free ELISA: HIS-tagged CLCF1 constructs with 2 nM CNTFR-Fc, captured by anti-HIS, detected by anti-mouse HRP; FRR-CLCF1 plus Y22C
Description: as §3

[5] = biological target: T2, wild-type CNTFR-Fc; assay: cell-free ELISA, HIS-tagged soluble CLCF1 titrated against 2 nM CNTFR-Fc, anti-HIS capture, HRP anti-mouse detection
Description: as §3

[6] = biological target: T2, wild-type CNTFR-Fc; assay: cell-free ELISA: HIS-tagged CLCF1 constructs with 2 nM CNTFR-Fc, captured by anti-HIS, detected by anti-mouse HRP; all six mutations combined (sfCLCF1)
Description: (§4) This was subsequently confirmed using a cell-free ELISA method. […] Unexpectedly, Y22C, W169L, and K180R decreased binding for gp130 with the combined mutations leading to the lowest binding while the mutations led to increased LIFR binding through increased CNTFR binding (FIG. 18). Because reduced binding interaction with beta receptors is desirable for antagonizing activation of CNTFR-CLCF1 mediated pathways, the clone with all six mutations, which was named sfCLCF1 (shuffled CLCF1) was selected for further studies.
as §3

[7] = biological target: T2, wild-type CNTFR-Fc; assay: cell-free ELISA, HIS-tagged soluble CLCF1 titrated against 2 nM CNTFR-Fc
Description: as §3

[8] = biological target: T2, wild-type CNTFR-Fc; assay: cell-free ELISA: HIS-tagged CLCF1 constructs with 2 nM CNTFR-Fc, captured by anti-HIS, detected by anti-mouse HRP; FRR-CLCF1 parent, no added mutation
Description: as §3

[9] = biological target: T2, wild-type CNTFR-Fc; assay: sandwich ELISA: soluble CLCF1 incubated with CNTFR-Fc, captured by anti-mouse Fc, detected by anti-CLCF1; sandwich ELISA, anti-mouse Fc capture, anti-CLCF1 detection
Description: (§5) The CLCF1 variants isolated from screening were cloned into the pET28b bacterial expression plasmid and expressed and purified. […] A sandwich ELISA was performed using an anti-mouse Fc antibody as a capturing agent for wtCNTFR-Fc, followed by an anti-CLCF1 antibody as a detection agent for the bound complex. […] ELISA was also used to measure binding interactions with the gp130 and LIFR beta receptors.
(§6) To measure the solution-phase binding interaction between the CLCF1 constructs and CNTFR, different concentrations of soluble, recombinant CLCF1 variants and wtCLCF1 were incubated with 2 nM CNTFR-Fc in BPBS for 12 h at room temperature. The mixture was then added to 96-well plates coated with anti-mouse-Fc antibody for 1 h followed by washing with BPBS twice. Subsequently, the wells were incubated with 1:1000 diluted anti-CLCF1 rabbit antibody for 2 h at room temperature then washed four times with BPBS. The wells were incubated with a 1:1000 diluted HRP conjugated anti-rabbit antibody for 2 h at room temperature, and washed four times with BPBS. 1-Step Ultra TMB ELISA was used for the readout, which was measured using a plate reader (Tecan).

[10] = biological target: T2, wild-type CNTFR-Fc; assay: sandwich ELISA, soluble CLCF1 titrated against 2 nM CNTFR-Fc, apparent Kd
Description: as §5, §6

[11] = biological target: T2, wild-type CNTFR-Fc; assay: sandwich ELISA, soluble CLCF1 titrated against 2 nM CNTFR-Fc, anti-mouse-Fc capture, anti-CLCF1 detection
Description: as §5, §6

[12] = biological target: T2, wild-type CNTFR-Fc; assay: assay not given; the FRR-CLCF1 and sfCLCF1 values in it equal those of FIG. 17 B (cell-free ELISA with 2 nM CNTFR-Fc)
[13] = biological target: T2, wild-type CNTFR-Fc; assay: cell-free ELISA: HIS-tagged CLCF1 constructs with 2 nM CNTFR-Fc, captured by anti-HIS, detected by anti-mouse HRP; FRR-CLCF1 plus K180R
Description: as §4, §3

B2: recombinant soluble FRR-CLCF1 with W169L (ligand)
chain: LNRTGDPGPGPSIQKTYDLTRYLEHQLRSLAGTYLNYLGPPFNEPDFNPPRLGAETLPRATVDLEVWRSLNDKLRLTQNYEAYSHFLCYLRGLNRRAATAELRRSLAHFCTSLQGLLGSIAGVMAALGYPLPQPLPGTEPTWTPGPARSDFLQKMDDFWLLKELQTWLLRSAKDFNRLKKKMQPPAAAVTLHLGAHGF
notes: Read as FRR-CLCF1 plus W169L; HIS-tagged in the cell-free assay
Kd [3]: 0.64 nM

B3: recombinant soluble FRR-CLCF1 with Y22C (ligand)
chain: B2 chain with Y22C, L169W
notes: HIS-tagged in the cell-free assay
Kd [4]: 0.464 nM

B6: recombinant soluble FRR-CLCF1 (L86F, Q96R, H148R) (ligand)
chain: B2 chain with L169W
notes: Expressed in E. coli from pET28b
EC50 (read off the curve) [5]: ~1 nM
Kd [8]: 0.869 nM
Kd [9]: ~0.83 nM
Kd [10]: 0.86 nM
EC50 (read off the curve) [11]: ~1 nM

B7: enCLCF1 (engineered CLCF1; Y22C, L86F, Q96R, H148R, F151A, K154A, W169L, K180R) (ligand)
chain: B2 chain with Y22C, F151A, K154A, K180R
notes: That change is not in the list of mutations; also called sfAA-CLCF1
Kd [12]: 0.12 nM

B8: FRRAA-CLCF1 (ligand)
chain: B2 chain with F151A, K154A, L169W
notes: It is read as FRR-CLCF1 plus the LIFR-reducing alanine substitutions F151A and K154A
Kd [12]: 0.93 nM

B9: recombinant soluble FRR-CLCF1 with K180R (ligand)
chain: B2 chain with L169W, K180R
notes: Read as FRR-CLCF1 plus K180R; HIS-tagged in the cell-free assay
Kd [13]: 0.559 nM

Other lines, results leading:

EC50 (read off the curve) [1]: ~3 nM
Kd [2]: 4.2 nM
B1: v3 (ligand)
CLCF1 variant displayed on yeast as Aga2p fusion with c-myc tag: B2 chain with F86L, L169W

EC50 (read off the curve) [5]: ~0.2 nM
Kd [6]: 0.115 nM
B4: recombinant soluble sfCLCF1 (shuffled CLCF1; Y22C, L86F, Q96R, H148R, W169L, K180R) (ligand)
chain: B2 chain with Y22C, K180R
notes: HIS-tagged in the cell-free assay; also called the clone with all 6 mutations; a variant with all of the mutations combined

EC50 (read off the curve) [5]: ~0.2 nM
Kd [7]: 0.2 nM
B5: v4 (ligand)
soluble CLCF1 variant: B2 chain with K180R
notes: the text prints no Kd for it

From US20190328837A1 (Stanford University, published 2019)
